Test results from patent US20200181617, “CHEMICALLY MODIFIED RNA APTAMERS AND USES THEREOF” (ALBERT EINSTEIN COLLEGE OF MEDICINE, published 2020).

T1: LRIG1 (UniProt Q96JA1 Q96JA1:35-794)
T1 sequence: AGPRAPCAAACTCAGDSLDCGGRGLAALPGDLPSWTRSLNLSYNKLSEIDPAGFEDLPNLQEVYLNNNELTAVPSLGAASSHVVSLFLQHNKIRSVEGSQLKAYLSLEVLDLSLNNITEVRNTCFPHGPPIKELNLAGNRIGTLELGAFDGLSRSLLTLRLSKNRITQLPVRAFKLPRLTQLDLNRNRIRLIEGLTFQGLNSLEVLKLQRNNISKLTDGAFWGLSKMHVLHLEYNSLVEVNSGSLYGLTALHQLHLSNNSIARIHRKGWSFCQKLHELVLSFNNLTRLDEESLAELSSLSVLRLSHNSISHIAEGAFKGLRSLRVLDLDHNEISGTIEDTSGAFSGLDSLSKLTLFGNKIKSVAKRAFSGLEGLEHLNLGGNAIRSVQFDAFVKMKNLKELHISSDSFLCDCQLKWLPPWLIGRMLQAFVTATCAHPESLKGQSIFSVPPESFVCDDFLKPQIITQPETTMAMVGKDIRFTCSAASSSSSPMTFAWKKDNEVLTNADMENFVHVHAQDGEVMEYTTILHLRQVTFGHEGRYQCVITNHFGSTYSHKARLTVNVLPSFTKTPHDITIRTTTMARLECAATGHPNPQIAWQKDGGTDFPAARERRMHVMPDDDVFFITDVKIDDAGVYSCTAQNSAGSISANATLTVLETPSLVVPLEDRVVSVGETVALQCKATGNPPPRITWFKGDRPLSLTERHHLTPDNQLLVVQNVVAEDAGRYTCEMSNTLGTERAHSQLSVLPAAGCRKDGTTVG

B1: Lrig1-Rd8-11 (clone 11) (XNA)
DNA: GGGAAGGAGAGACGACGCGACACCCGCTTCACCGCTGTGTAACTGCGACGACGGACGTCAGATCAGCAGACAAGACCGGACAAGAAGC
modifications: 2'-F G; 2'-OMe A; 2'-OMe C; all T positions are 5-modified dU (Phe-dU)
B2: Lrig1-Rd8-08 (clone 8) (XNA)
DNA: GGGAAGGAGAGACGACGCGACACCCCCTTGAGTCACAGGTGTGTGAGCGCCGACGGCTTGGTACAGCAGACAAGACCGGACAAGAAGC
modifications: 2'-F G; 2'-OMe A; 2'-OMe C; all T positions are 5-modified dU (Phe-dU)

Target: T1, LRIG1
Test: flow; apparent; protein on Dynal His beads; no signal on non-protein beads
Conditions: tags: His-tagged, immobilized on magnetic His-capture beads (Dynal His beads)
Method: Using a N40 library containing ˜10″ unique sequences, transcribed using a mixture of Phe-dUTP, 2′OMe ATP, 2′OMe CTP and 2′F GTP, SELEX was initiated against the protein LRIG1. In short, the His-tagged protein was immobilized on 1 μm, magnetic His-capture beads and incubated with the library for 30 minutes at 37° C. after which the beads were washed 3 times with buffer, and then any bound library molecules eluted by the addition of wash buffer containing the denaturant guanidine hydrochloride (4M). Following elution the library molecules were recovered by ethanol precipitation and reverse transcribed into DNA using SSIV under optimized conditions (2M betaine). The resulting ssDNA was then amplified by PCR and the resulting dsDNA then transcribed back in to modified RNA by transcription using the LAL-polymerase and a mixture of Phe-dUTP, 2′OMe ATP, 2′OMe CTP and 2′F GTP under the present optimized conditions. The process was repeated for 8 rounds of selection. A fluorescently labeled library was used to monitor the selection by flow cytometry. […] Importantly, when similar experiments were performed using non-protein target loaded beads, no signal over background was observed. […] Subsequent experiments were carried out to clone and sequence the round 6, 7 and 8 population and test individual molecules identified from the screen. […]

Binder	Kd
B1	~35 nM
B2	~25 nM
